test system: Escherichia coli TOP10; test: shrunken log2 fold change of peptide-encoding DNA abundance (4.5 h post-induction vs induction); higher = less antimicrobial activity (less host growth inhibition); details: time post-induction: 4.5 h; library: site-saturation at positions 5, 18, 19, 20
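Also: peptides expressed intracellularly from a pBAD plasmid library in pooled LB shake-flask culture, induced with 0.3% L-arabinose, DNA abundance read by NGS, three biological replicates, DESeq2 with apeglm shrinkage.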

| Sequence | shrunken log2 fold change |
| --- | --- |
| RRIRQRPPRLPRPRPRPWNAPRP | 0.00391 |
| RRIRKRPPRLPRPRPRPMGNPRP | 0.111 |
| RRIRGRPPRLPRPRPRPPERPRP | 1.02 |
| RRIRPRPPRLPRPRPRPCIKPRP | -0.441 |
| RRIRRRPPRLPRPRPRPQWEPRP | -0.0504 |
| RRIRTRPPRLPRPRPRPNHCPRP | -0.479 |
| RRIRGRPPRLPRPRPRPQGLPRP | 0.335 |
| RRIRRRPPRLPRPRPRPDEAPRP | 0.376 |
| RRIRNRPPRLPRPRPRPGYLPRP | 0.114 |
| RRIRHRPPRLPRPRPRPYPGPRP | -0.216 |
| RRIRGRPPRLPRPRPRPWKKPRP | -0.00973 |
| RRIRLRPPRLPRPRPRPQISPRP | -0.272 |
| RRIRIRPPRLPRPRPRPPELPRP | -0.123 |
| RRIRQRPPRLPRPRPRPSFGPRP | 0.0622 |
| RRIRSRPPRLPRPRPRPRCFPRP | 0.165 |
| RRIRRRPPRLPRPRPRPGLNPRP | -0.0395 |
| RRIRVRPPRLPRPRPRPMNFPRP | -0.349 |
| RRIRGRPPRLPRPRPRPFPFPRP | -0.0622 |
| RRIRQRPPRLPRPRPRPCFQPRP | -0.252 |
| RRIRKRPPRLPRPRPRPGLQPRP | -0.00225 |
| RRIRDRPPRLPRPRPRPTIGPRP | -0.0292 |
| RRIRGRPPRLPRPRPRPVANPRP | 0.623 |
| RRIRTRPPRLPRPRPRPRRYPRP | 0.108 |
| RRIRARPPRLPRPRPRPHVTPRP | 0.0281 |
| RRIRQRPPRLPRPRPRPWRIPRP | -0.416 |

| Sequence | shrunken log2 fold change |
| --- | --- |
| RRIRRRPPRLPRPRPRPCQLPRP | -0.231 |
| RRIRIRPPRLPRPRPRPYAVPRP | -0.937 |
| RRIRMRPPRLPRPRPRPITFPRP | 0.0589 |
| RRIRCRPPRLPRPRPRPVLCPRP | -0.112 |
| RRIRIRPPRLPRPRPRPLTSPRP | -0.188 |
| RRIRRRPPRLPRPRPRPPYIPRP | 0.141 |
| RRIRTRPPRLPRPRPRPIFKPRP | -0.128 |
| RRIRHRPPRLPRPRPRPMSAPRP | -0.549 |
| RRIRDRPPRLPRPRPRPKDQPRP | -0.111 |
| RRIRARPPRLPRPRPRPMLLPRP | -0.0981 |
| RRIRYRPPRLPRPRPRPGTSPRP | -0.0454 |
| RRIRSRPPRLPRPRPRPPDNPRP | -0.0697 |
| RRIRERPPRLPRPRPRPIKEPRP | 0.0101 |
| RRIRERPPRLPRPRPRPMMFPRP | -0.0555 |
| RRIRCRPPRLPRPRPRPPHCPRP | 0.971 |
| RRIRLRPPRLPRPRPRPEDDPRP | 0.0572 |
| RRIRHRPPRLPRPRPRPKVNPRP | -0.181 |
| RRIRGRPPRLPRPRPRPAVKPRP | 0.0152 |
| RRIRVRPPRLPRPRPRPGKVPRP | -0.272 |
| RRIRWRPPRLPRPRPRPGLRPRP | 0.53 |
| RRIRDRPPRLPRPRPRPCFEPRP | 0.708 |
| RRIRRRPPRLPRPRPRPFTAPRP | 0.128 |
| RRIRKRPPRLPRPRPRPIECPRP | -0.0298 |
| RRIRFRPPRLPRPRPRPLEGPRP | 0.0031 |
| RRIRGRPPRLPRPRPRPCVEPRP | 0.953 |

| Sequence | shrunken log2 fold change |
| --- | --- |
| RRIRYRPPRLPRPRPRPITSPRP | 0.0314 |
| RRIRYRPPRLPRPRPRPNCQPRP | -0.0282 |
| RRIRNRPPRLPRPRPRPTTYPRP | -0.228 |
| RRIRDRPPRLPRPRPRPTAKPRP | -0.00144 |
| RRIRQRPPRLPRPRPRPRFDPRP | -0.0137 |
| RRIRRRPPRLPRPRPRPLFCPRP | 0.24 |
| RRIRRRPPRLPRPRPRPPVEPRP | 0.593 |
| RRIRARPPRLPRPRPRPDVKPRP | 0.395 |
| RRIRGRPPRLPRPRPRPRRCPRP | 0.548 |
| RRIRDRPPRLPRPRPRPNHLPRP | 0.000895 |
| RRIRYRPPRLPRPRPRPKCNPRP | -0.533 |
| RRIRERPPRLPRPRPRPHWHPRP | -0.298 |
| RRIRRRPPRLPRPRPRPKNSPRP | -0.0537 |
| RRIRMRPPRLPRPRPRPIRKPRP | 0.553 |
| RRIRHRPPRLPRPRPRPRSMPRP | -0.241 |
| RRIRPRPPRLPRPRPRPTMIPRP | -0.239 |
| RRIRKRPPRLPRPRPRPWPQPRP | 0.0865 |
| RRIRSRPPRLPRPRPRPFQAPRP | 0.0408 |
| RRIRFRPPRLPRPRPRPPNRPRP | 0.266 |
| RRIRARPPRLPRPRPRPLNFPRP | -0.249 |
| RRIRHRPPRLPRPRPRPHNLPRP | 0.0201 |
| RRIRGRPPRLPRPRPRPVMDPRP | 0.96 |
| RRIRVRPPRLPRPRPRPMKAPRP | 0.0113 |
| RRIRFRPPRLPRPRPRPTDQPRP | -0.0655 |
| RRIRYRPPRLPRPRPRPPVLPRP | -0.132 |

| Sequence | shrunken log2 fold change |
| --- | --- |
| RRIRVRPPRLPRPRPRPHTFPRP | -0.105 |
| RRIRNRPPRLPRPRPRPIHKPRP | -0.377 |
| RRIRWRPPRLPRPRPRPCRTPRP | 0.112 |
| RRIRVRPPRLPRPRPRPPSKPRP | 1.13 |
| RRIRVRPPRLPRPRPRPFHPPRP | -0.309 |
| RRIRWRPPRLPRPRPRPPQIPRP | 0.117 |
| RRIRRRPPRLPRPRPRPMAMPRP | -0.011 |
| RRIRYRPPRLPRPRPRPRTNPRP | -0.492 |
| RRIRWRPPRLPRPRPRPCAPPRP | -0.0663 |
| RRIRSRPPRLPRPRPRPYARPRP | -0.351 |
| RRIRVRPPRLPRPRPRPSHTPRP | -0.0229 |
| RRIRCRPPRLPRPRPRPHTYPRP | -0.578 |
| RRIRTRPPRLPRPRPRPFCNPRP | 0.0687 |
| RRIRARPPRLPRPRPRPQFHPRP | -0.116 |
| RRIRSRPPRLPRPRPRPLLDPRP | 0.218 |
| RRIRDRPPRLPRPRPRPSTGPRP | -0.313 |
| RRIRTRPPRLPRPRPRPKKIPRP | -0.437 |
| RRIRQRPPRLPRPRPRPFPIPRP | -0.0231 |
| RRIRRRPPRLPRPRPRPRNPPRP | 0.345 |
| RRIRHRPPRLPRPRPRPTCYPRP | -0.272 |
| RRIRGRPPRLPRPRPRPELHPRP | 1.04 |
| RRIRHRPPRLPRPRPRPLWQPRP | -0.145 |
| RRIRRRPPRLPRPRPRPQNVPRP | 0.0718 |
| RRIRIRPPRLPRPRPRPNHNPRP | -0.518 |
| RRIRDRPPRLPRPRPRPPDLPRP | 0.201 |

| Sequence | shrunken log2 fold change |
| --- | --- |
| RRIRLRPPRLPRPRPRPVESPRP | -0.0112 |
| RRIRIRPPRLPRPRPRPKVYPRP | -0.394 |
| RRIRFRPPRLPRPRPRPQIMPRP | -0.736 |
| RRIRKRPPRLPRPRPRPQYMPRP | 0.0201 |
| RRIRTRPPRLPRPRPRPWDMPRP | -0.33 |
| RRIRPRPPRLPRPRPRPMVIPRP | -0.0869 |
| RRIRLRPPRLPRPRPRPPGHPRP | 0.224 |
| RRIRERPPRLPRPRPRPQATPRP | -0.0202 |
| RRIRGRPPRLPRPRPRPSHAPRP | 0.423 |
| RRIRFRPPRLPRPRPRPTTPPRP | 0.352 |
| RRIRNRPPRLPRPRPRPQEFPRP | -0.0043 |
| RRIRHRPPRLPRPRPRPRCQPRP | 0.219 |
| RRIRCRPPRLPRPRPRPWRVPRP | 0.149 |
| RRIRGRPPRLPRPRPRPMHQPRP | 0.696 |
| RRIRFRPPRLPRPRPRPDETPRP | 0.145 |
| RRIRLRPPRLPRPRPRPSKYPRP | -0.578 |
| RRIRYRPPRLPRPRPRPKFAPRP | -0.44 |
| RRIRARPPRLPRPRPRPLNIPRP | 0.0473 |
| RRIRIRPPRLPRPRPRPSYAPRP | -0.0605 |
| RRIRQRPPRLPRPRPRPTILPRP | 0.939 |
| RRIRHRPPRLPRPRPRPHADPRP | -0.208 |
| RRIRARPPRLPRPRPRPSWQPRP | 0.223 |
| RRIRGRPPRLPRPRPRPVKAPRP | 0.659 |
| RRIRWRPPRLPRPRPRPGFGPRP | 0.651 |
| RRIRCRPPRLPRPRPRPTGEPRP | 0.156 |

| Sequence | shrunken log2 fold change |
| --- | --- |
| RRIRHRPPRLPRPRPRPIWDPRP | -0.00794 |
| RRIRTRPPRLPRPRPRPEDMPRP | -0.00975 |
| RRIRNRPPRLPRPRPRPFWTPRP | -0.132 |
| RRIRGRPPRLPRPRPRPPLSPRP | 0.897 |
| RRIRKRPPRLPRPRPRPFDWPRP | 0.243 |
| RRIRVRPPRLPRPRPRPAVEPRP | 0.565 |
| RRIRIRPPRLPRPRPRPDRGPRP | -0.0332 |
| RRIRKRPPRLPRPRPRPYYAPRP | -0.0013 |
| RRIRFRPPRLPRPRPRPDIGPRP | -0.0309 |
| RRIRNRPPRLPRPRPRPGCYPRP | -0.24 |
| RRIRARPPRLPRPRPRPFFFPRP | 0.419 |
| RRIRKRPPRLPRPRPRPELFPRP | 0.155 |
| RRIRPRPPRLPRPRPRPDANPRP | 0.172 |
| RRIRYRPPRLPRPRPRPHKKPRP | -0.0787 |
| RRIRNRPPRLPRPRPRPPENPRP | 0.181 |
| RRIRGRPPRLPRPRPRPPQDPRP | 0.781 |
| RRIRPRPPRLPRPRPRPYGHPRP | 0.0138 |
| RRIRARPPRLPRPRPRPQMVPRP | -0.0332 |
| RRIRGRPPRLPRPRPRPHMKPRP | 0.103 |
| RRIRWRPPRLPRPRPRPENQPRP | 0.353 |
| RRIRGRPPRLPRPRPRPACPPRP | 0.46 |
| RRIRMRPPRLPRPRPRPCCGPRP | 0.215 |
| RRIRLRPPRLPRPRPRPTELPRP | -0.118 |
| RRIRFRPPRLPRPRPRPFADPRP | -0.0172 |
| RRIRSRPPRLPRPRPRPEGRPRP | -0.0898 |
